# Measurements published in the DeepSol protein solubility set.
# Assay: soluble on expression in E. coli; label from the status in PepcDB or PDB records
row,Sequence,soluble on expression in E. coli
1,MGSDKIHHHHHHMLYSFSRLVYRILTVVGVLDGRAAYKRRIQLTGRSTYIVSLPKEWVETWRLGRGSEVTLEVMPDGSLKIAPSASERPARRDRRVIDLRGKELDLSFVIKSVIASYLAGYDEVLLLFGDGSVDAVSKIRSIVESNILGFNVLEEGPGYIVFVSVVDHRSMEFSRALSRMARIAAEMIRDVARGLENGDRGLLDLVAERDQLVDKLYLYMARQMTMASSGRLPLKDLGVYSPAEIVHLFLAVKSIERVADHATILSVRVSASLGAGMSVENGLSSLVMEAAEGFSKSVEALIKADAGLAASIAPVLSEYRSRLESMTAQEFLRGGGSLLRYLVIDSMRRITGYSLDIAEAALDISAVREKAKSEGP,not soluble
2,MAHHHHHHMITMECITKKIKTIFQNSIQKCFPSISEDAIVTYANLKFGHYQCNNAINIYKKYGKELNYENAQKISEFIISNINETIFEEIKSSPQGFITVKLSKDYIETSLKKLFNGEKIDISININDIKESNENYGNVLVDFSSPNIAKEMHVGHLRSTIIGDSICRVFEFLKINTHRVNHVGDWGTQFGMIINYIKTHYPNFKEEMPDLSNLTSLYQESKKMYDADKEFEKSSKENAIKLQNNDEDCKFVWNKLCESSKKEFDKLYNILDIKLEYVGESFYVPMLSTVLDLLKESKLLTNIGDAICYQSENFKVPLFLQKSNGGYGYDSTDVAALYYRLTQLNCNCVIYVTDIGQLTHFETIFDLIKKTNWGDKNAKLMHVGFGFVLNEDNKKFKTRSGTTVKLINLIKEGTERAKRDLLQRIETKSEEEKSYFENVDIDQLSESLCVSAIKYFDLKQHRNSDYKFSYDNMLNVKGNTGIYIIYGYSRICSIFRKSTINVEDISKDELSLTSIYEINLGLHILKFPDIFYYILKNMLVHKLAEYMYDLTTTFTAFYENCKVLNNENEKSRLLLCSITKSLLKLCMELLGMKPIEKL,soluble
3,MGSDKIHHHHHHTVPTFYLFGLLIMHNAAQHNYVISLTTEQKRRKHITEEFGKQNIPFEFFDAITPDIIEETAKKFNITLDRSPKAKLSDGEIGCALSHIVLWDLALENNLNYINIFEDDIHLGENAKELLEIDYISDDIHVLKLEANGKMFFKQPKSVKCDRNVYPMTVKQSGCAGYTVTAKGAKYLLELVKNKPLDVAVDSLVFEDFLHFKDYKIVQLSPGICVQDFVLHPDNPFESSLQEGRDRVHGNQRKSSILEKIKNEFGRVKIKMFGKQVPFK,not soluble
4,HHHHHHGSAQLPSPTNGKKWEKVEQLSDEFDGNSIDTNKWYDYHPFWEGRAPSNFKKGDAFVSDGFLNLRSTLRKEPSSVQDPFKDIWVDAAAAVSKTKAQPGYYYEARFMASSLSMTSSFWFRVGQFSSIDVIEHIGDPSKENRQDDLPYQYHVNTHYYGKHAGLQPLGTEYKMPGRGRDNFYTYGFWWKSPNELLFYFNGKQVMRIVPRVPLDEELRMIFDTEVFPFATAGVANIGLPKPENLRDNSKNTMKVDWVRVYKLVDGTA,soluble
5,MLSIISKYLLIASYICSYLEPRYDASIFSRKTRIIQGRAAYGRRKKKEVNPRYLQPSLFAIERLLAIFQAIFPIQGKAESGSLSALREESLMKANIEVFQNLSELHTLKLIATTMNKNIDYLSPKVRWKVNVPWEIIKEISESVHFNISDYFSD,not soluble
6,MSKILVFGHQNPDSDAIGSSYAFAYLAREAYGLDTEAVALGEPNEETAFVLDYFGVAAPRVITSAKAEGAEQVILTDHNEFQQSVADIAEVEVYGVVDHHRVANFETASPLYMRLEPVGSASSIVYRMFKEHGVAVPKEIAGLMLSGLISDTLLLKSPTTHPTDKVIAPELAELAGVNLEEYGLAMLKAGTNLASKSAEELIDIDAKTFELNGNNVRVAQVNTVDIAEVLERQAEIEAAIEKAIADNGYSDFVLMITDIINSNSEILAIGSNMDKVEAAFNFVLENNHAFLAGAVSRKKQVVPQLTESFNA,soluble
7,MAYLVAVTACVSGVAHTYMAAERLEKLCLLEKWGVSIETQGALGTENRLADEDIRRADVALLITDIELAGAERFEHCRYVQCSIYAFLREPQRVMSAVRKVLSAPQQTHLILE,soluble
8,MGSDKIHHHHHHMISQFIDRKRELAILEREWKNTPSFVVIYGRRRVGKTRLLVEFSKGKKVFFYTFMEGTKESQVKSLAKELVDFFNDEIFLSFSDWYPLFKYLSGKLMEKTLFVFDEFTYAVKSDRSILSALQRVWDHELSYKPVMLVLSGSLMGIMEDNVLSHSSPLYGRRTAGFRLRSLGLFPSLRFFKSPIEGLKFYMLLGGIPAYLIIASRYETVGEFVEREFLTPEGYFYDEPYIVLSELKELKTYFSILSAMSSGRRRPSEIASEVGLEGRKIYPYLETLIRLGFVERELPIARKEKRGLYRISDPMLMSWFSLIYPNRTEIELGTITLERVEKILQRIFSFRFEDVSREFLVEMNKAGKLPFRFTKIGRWWYKGEEIDLVALNEDEEKALFIEVKWKDLKEREVKGILKDLEKKAGLVGLDGWDKNYGLIEKSIERKEKLREENYLVWDLKDFDALKILSQ,not soluble
9,MSVDLKRGETLPIHVNMTFPSLPCDVLSVDAIDMSGKHEVDLDTNIWKLRLNSHGHIIGTEYISDLVEKGHEHDGKEEHKNETETEALNILGFDQAAETMIKKVKQALADGEGCRVYGVLDVQRVAGNFHISVHGLNIYVAQMIFGGSKNVNVSHMIHDLSFGPKYPGIHNPLDDTNRILHDTSGTFKYYIKIVPTEYRYLSKDVLSTNQYSVTEYFTPMTEFDRTWPAVYFLYDLSPITVTIKEERRSFLHLITRLCAVLGGTFALTGMLDRWMFRFIESFNKKPSTRA,soluble
10,MEHTIAVIPGSFDPITYGHLDIIERSTDRFDEIHVCVLKNSKKEGTFSLEERMDLIEQSVKHLPNVKVHQFSGLLVDYCEQVGAKTIIRGLRAVSDFEYELRLTSMNKKLNNEIETLYMMSSTNYSFISSSIVKEVAAYRADISEFVPPYVEKALKKKFK,not soluble
11,MGSDKIHHHHHHMDHIQAMRVFVRIVELGSFSRAAERLALPRATVSNTIKQLEGRLGVRLLQRTTRQVQITDEGRVYYERCLQLLAEIEEIDTLFTQQKLQPVGKVRVDMPHSLAREIVVPALGEFYARYPQVTLMLSANDAAINVLREGVDCVLRAWQTDDETLATRHLPSMPQVTCASADYLARYGVPRSLDELSGHHMVGYFSLRTEYLYPLEFMSGDERITRMLPGTLQVNGADAYIAGACAGLGIIQAPRRGLISLLDGGELVEILPEIPPPAMPLYVMYTPGRFLAPRIRVFIEWLDELFTRNAAVR,not soluble
12,MVAYPGPMPRSPSPGQTPDAPTSGGGSTDSTRQRIVAAAKEEFARHGIAGARVDRIAKQARTSKERVYAYFRSKEALYAHVAERETTALIEATQLDPADLPGYAGILFDHFAARPDHYRLITWGRLELAESADNTSGPLQATIAGKLDKLRDAQRIGLLDPAWDPVDVLALINQIAMTWAGQPEIAAAAADQAVDPSVTARRAALVTAVEHMFPRPDRDQRPNRLT,soluble
13,MNELRDPGDAVIAIVGGGASGVLVALQLLRQAVAPVQIVVIEPHAVLGEGVAYSTARPEHLLNVPAARMSALVEAPQDFVDYLRAHACCPELEDARLPQAFVGRRHYAPYLRDRLQTARVQSPATLIVHSARVQTLHADADGALLQLDDGQTLHATSVVLAVGNALRPLPLRGATGLSATQRLEAWDTEAVAALPQDAAVCIVGSGLSMADTVVTLAAQAHRGAVHVVSRHGLLPLPQAHCVAADFDPQPLLALSLRARMRSLRQHAQVAMAQGLPWQGVMERVRPLNQVLWQTLSVADQRRFLRHVVRYWDVHRHRIAAPVHAQLQAMRARGQLQLHRARLDVAFQAGACVRLSAGASAGHALQLDVQTLVNATGVEMRVQAMRNPLLQQLLGQGIAVAGSHGIGVDTAADGCLIDAEGHANPRLRVIGSLRIGSLWESLAVPELREQAAAIARDVLALLGR,not soluble
14,KVDKKTYKNLIVELQQRMREIQFALYERKIPLVLVFEGMDAAGKGGNIKRIREKLDPTGYEVNGISAPTDVELKHHYLWRFAKKMPKSGHIEIFDRSWYGRVLVERVEGFASQNEWQRASDEINQFEKMWTDEGTIILKFFLCLDKDEQLKRFKDRENNPDKQWKITEEDWRNREKWDEYLEASHDMIESTNTSYAPWYIVPADHKKTSRIEVLKTIIRKCEEVLWGVKTY,not soluble
15,AQVEPTVAYPHIPSNGRVAGSDRIRVTHAYVGSCTNGRITDLRDVARILKGRKVAQDVQMIVVPATQAIWKQAAQEGLLEIFVDAGASVSYPSCGACLGMHSGVLGPDDICISSSNRNFVGRMGDPSAQIYLASPATVAASAVEGFIADPRRYDAEGND,not soluble
16,MGIMELARIDLSRDDLDKRIGGGIPHGSLIIIEGEESTGKSVLCQRLAYGFLQNRYSVTYVSTQLTTLEFIKQMNSLNYSINKKLLSGALLYIPVYPLIADNKKKDGFLKKVMETRAFYEKDVIIFDSISALIANDASEVNVDDLMAFFKRITALKKIIICTVNPKELPESVLTIIRTSATMLIRTELFTFGGDLKNLAKILKYNMAPGSYQKNIVFRVEPKIGIAVEIASVALEHHHHHH,soluble
17,MAHHHHHHMIPRYDGLVPAIRGPASACAVASVNATPSSTTKRTAAATTVARYVICPVETTGTENAHVNATAERERRLFAFLPSVDCAAPPRELRVSSHYFEDALVASVASSDAESGEDLDEGEESHTSTARRGNTREDGAHGSNSGSRKRRRARRREPMRLEYDGFLAPATEATKRVRLVSTPASEYSHLTCVLLQLPTAWREQDMDEGEGHGRTACVSSSSTSKPLITSMPLRRPILQLWGERNTAAAGPNDGSLCTGSSAASISAAWGSDTRLQISKKDWKTMDAAEEDLHKPTNWSDDDGGDASDEGRGKSASGADDAISARARKREREEATSIAVRSFLAGTKEALRQQGAVGAADGFAQPQPAVRSDNAAPVSARVETSAPVKAAAKRATVTVPLSSGSSGSRVRSSVATPAVPPTHALTTNSAAPLPSSGVAPPDGSASLDSLACTVVTGMLSSEARRAATLMELQKRILKQLPEFATMSQKMKSTATKQEAVAWFQTSQQALRAWLVEHGHTIDSDGTVTFGDA,not soluble
18,AHHHHHHGSKAMEFVGYKKSGKTTCVENVAKVLKKEKGYRVAIAKSMHSNFDKEETDTWKFSRIADYVIVHAQDIDGLLFKAKDVNALFSMVSADILLIEGFKSITHVPKVICAKSEEEVRELNNGLAIAVSGVIANKGIKEIDGLPVINATKEPEKLAELVEKKGFMLPNIDCGLCGYNCAEMAKLIVKGEKTVKDCVVLSSTPKVTIKIDGQVLPLKDWVQELVEKTIKGMLSAMKGYREGRKIEIVIKE,soluble
19,VTTRQEKAAQTRRDLLDAARVVFERNGYLNATITDITTEAGKAAGSFYNHFDGKEALLLALADDIGDDADALITTSPDDLRNLGPHLAVFWQLQSRHRPVMAALRDAALVDPEFAQRMHDFGI,not soluble
20,MIENIMSLQKGLPEEISALEEDLAFTSRQIEARKKIADERQKLRERLNSVIHDCKEKIKSFKEKQTLARNNKEYDALSKQIEYEEKEIAQAEIQLQDISHAEHHAQELQKKGRELIAENRYDEISEEMMPDDVLQQQMEDLGQQVRQKKEELESIVVETAEEVAQLKAVLSEQRSVVAQQAKRLLDKYDHLKSGSIQNAVVKLDRQACSGCNTRVPTNRHTLIVQGGFYVCESCGRIVVHERLFDEAAASGQQ,not soluble
21,MSLRKFSLIMATYGRKDEVGCFLESLMNSNYPMDKVEVIIVDQNKEIDLEPIISKYKEKIKVVHIKSNERGLALNRNKGLEIATGDIIAFPDDDCEYLVDTLNIVNNYFENEHCDLLMGRIVERNGEDSLREWPKEKIEINKNNFYTKCSSVTMFLDSKKCFVKFNDQLGAGKYFGACEDADLIYKNCKKGLKIIYNPELQIYHPHYDSNSNMDDKKIYSYGLGFGAMVKSNFDFSMLILFIKAEGYHFLKSLIYLITFKTTKSKRSWLAFKSRIKGFFEYKNEGHHHHHH,soluble
